{"source": "patent US9296810", "about": "(Novartis, dated 2016)", "key": {"[1]": {"biological_target": "T1, Human Serum Albumin (HSA) (human, UniProt P02768 25-609)", "T1 sequence (P02768 25-609 limits assumed)": "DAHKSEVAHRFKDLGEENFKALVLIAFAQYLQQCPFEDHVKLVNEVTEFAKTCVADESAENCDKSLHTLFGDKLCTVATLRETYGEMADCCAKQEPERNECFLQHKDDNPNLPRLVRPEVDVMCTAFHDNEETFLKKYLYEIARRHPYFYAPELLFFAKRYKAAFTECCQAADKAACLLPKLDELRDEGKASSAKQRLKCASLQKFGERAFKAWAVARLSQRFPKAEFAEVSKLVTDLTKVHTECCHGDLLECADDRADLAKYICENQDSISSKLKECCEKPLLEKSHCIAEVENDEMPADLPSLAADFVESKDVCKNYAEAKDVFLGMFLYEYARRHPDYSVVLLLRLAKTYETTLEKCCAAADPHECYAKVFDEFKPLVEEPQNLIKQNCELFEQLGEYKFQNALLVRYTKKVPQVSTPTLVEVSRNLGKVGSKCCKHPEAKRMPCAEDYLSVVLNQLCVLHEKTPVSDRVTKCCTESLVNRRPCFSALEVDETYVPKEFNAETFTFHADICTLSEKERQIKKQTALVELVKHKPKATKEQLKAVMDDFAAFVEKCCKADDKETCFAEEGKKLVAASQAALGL", "assay": "yeast display selection and ELISA screen of the HSA library", "procedure,_shortened": "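Single clones from the HSA library were expressed in E. coli overnight at 37 °C in OvernightExpress medium in 96 deep-well plates, freeze-thawed, lysed with lysozyme/EDTA then DNaseI, and cleared. Wells coated overnight at 4 °C with 1.0 µg/mL HSA and blocked with casein received 50 µL lysate for 1 hour, then were washed. Binding was detected with HRP anti-His-tag antibody and TMB substrate, read as optical density at 450 nm per clone extract.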"}, "[2]": {"biological_target": "T1, Human Serum Albumin (HSA)", "assay": "sandwich ELISA", "procedure": "The binding characteristic of the multispecific and bispecific binders from Examples 6 and 7 were assessed as follows. […] Aliquots of cleared lysate of wild-type Fn10 (lane1), clone 87 (multispecific) (lane2), clone 89 (bispecific) (lane3) and PBS were added to the wells and incubated for 1 hour at room-temperature. These were run at different concentrations 1, 2 and 3. After washing 5 times with PBS/0.05% Tween, the wells were incubated with 1 µg/ml HSA in PBS. Detection was performed with HRP conjugated chicken anti-human HSA antibody (Abcam). The ELISA was developed with a […] substrate and the OD-values measured at 450 nm."}}}
{"binder": "SEQ ID NO 8 (designed binder, used to build clone 87 and clone 89) VSDVPRDLEVVAATPTSLLISWDAPAVTVRYYRITYGRTDAKSTRKEFTVPGSKSTATIGELKRGRDYTITVYAVTGRGDSPASSKPISINYRPEK", "values": [{"measurement": "binding result", "setting": "[1]", "value": "binds"}]}
{"binder": "clone 87 (multispecific Fn3-based binding molecule; VEGFR2 top side binder fused to bottom side sequence 8 from FIG. 7 with GS linker) (designed binder, ELISA used cleared lysate, Biacore soluble protein; also called Fibronectin clone 87 (multispecific)) MGVSDVPRDLEVVAATPTSLLISWRHPHFPTRYYRITYGETGGNSPVQEFTVPLQPPLATISGLKPGVDYTITVYAVTKERNGRELFTPISINYRTGGGGSGGGGSVSDVPRDLEVVAATPTSLLISWDAPAVTVRYYRITYGRTDAKSTRKEFTVPGSKSTATIGELKRGRDYTITVYAVTGRGDSPASSKPISINYRPEKENLYFQGHHHHHH", "values": [{"measurement": "binding result", "setting": "[2]", "value": "binds"}]}
